The source of these data is US6960343B2, “Toll/interleukin-1 receptor adapter protein (TIRAP)” (Yale University School of Medicine, priority 2001, dated 2005).

For one test, the target named is T1, TLR4 (Homo sapiens, UniProt O00206).
T1 construct: a Myc-tagged TLR4 deletion construct lacking the ectodomain (Myc TLR4 wt); Myc; expressed in transfected cells; host or cells: 293T cells
T1 sequence (O00206 653-839 limits assumed): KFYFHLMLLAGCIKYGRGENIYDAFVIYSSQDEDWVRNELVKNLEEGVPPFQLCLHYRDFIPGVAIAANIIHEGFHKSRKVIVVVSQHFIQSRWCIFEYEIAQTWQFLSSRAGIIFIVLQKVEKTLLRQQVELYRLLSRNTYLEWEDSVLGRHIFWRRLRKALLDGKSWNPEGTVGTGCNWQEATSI
The test can be described thus: Co-immunoprecipitation with Myc-tagged TLR4 in 293T cells. In kind it is binding. The conditions noted are these: 293T cell lysates, anti-Flag immunoprecipitation. The source says:
Cells were transfected in the presence (+) or absence (−) of constructs encoding a wild-type portion of TLR4 (TLR4 wt), a mutant derivative thereof (TLR4 mut), wild-type TIRAP (TIRAP), a mutant TIRAP containing a P125H mutation (TIRAP PH), or wild-type MyD88 (MyD88), wherein each construct further encodes a Myc, Flag, or hemaglutanin (HA) tag, as indicated. Antibodies used for immunoprecipitation (IP) or immunoblot (IB) are indicated to the left of each blot.
To obtain biochemical conformation for a role of TIRAP in the TLR4 signaling pathway, TIRAP-TLR4 protein interactions were evaluated using co-immunoprecipitation experiments. 293T cells were co-transfected with 4.5 μg of a Myc-tagged TLR4 deletion construct lacking the ectodomain (Myc TLR4 wt) or its mutant derivative (Myc TLR4 P714H) in the presence or absence of 1.5 μg of Flag-tagged TIRAP (Flag TIRAP) or its mutant derivative containing the P125H mutation (Flag TIRAP PH). […] Immunocomplexes were washed, separated by SDS-PAGE electrophoresis, and then analyzed by immunoblotting with either anti-myc antibody to look for co-immunoprecipitated TLR4 or anti-Flag antibody to confirm immunoprecipitation of Flag TIRAP or Flag TIRAP P125H. Total cell lysates (35 μg/sample) were likewise analyzed by SDS-PAGE and immunoblotting to confirm equivalent expression of the appropriate proteins in every sample. […]

The target in test [1] is T2, CD4/TLR4 (constitutively active form of TLR4) (UniProt O00206+P06332).
T2 construct: CD4 (fusion partner of the chimera); expressed in transfected cells; host or cells: 293T cells
T2 sequence (P06332+O00206 with tags, fused parts or gaps): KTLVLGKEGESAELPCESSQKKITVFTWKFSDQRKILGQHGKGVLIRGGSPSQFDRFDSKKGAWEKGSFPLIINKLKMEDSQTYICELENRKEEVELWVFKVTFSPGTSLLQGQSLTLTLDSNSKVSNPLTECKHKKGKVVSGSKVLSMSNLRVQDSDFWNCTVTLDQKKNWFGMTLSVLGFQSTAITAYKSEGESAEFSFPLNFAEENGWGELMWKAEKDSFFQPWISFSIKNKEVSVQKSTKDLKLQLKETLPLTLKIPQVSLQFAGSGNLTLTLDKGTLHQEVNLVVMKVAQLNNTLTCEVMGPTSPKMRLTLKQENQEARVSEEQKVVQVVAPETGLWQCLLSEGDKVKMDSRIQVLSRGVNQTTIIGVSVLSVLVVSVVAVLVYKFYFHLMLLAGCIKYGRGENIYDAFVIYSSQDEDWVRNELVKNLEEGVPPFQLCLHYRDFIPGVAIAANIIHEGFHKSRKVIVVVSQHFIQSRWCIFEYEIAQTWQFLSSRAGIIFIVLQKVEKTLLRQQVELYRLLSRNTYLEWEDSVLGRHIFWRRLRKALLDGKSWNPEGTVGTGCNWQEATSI
The test can be described thus: CD4/TLR4-mediated NF-κB activation, luciferase reporter, 293T cells. In kind it is cell-based. The conditions noted are these: 50 ng, 250 ng, 1.0 μg construct. How it is done: To determine whether TIRAP P125H functions as a dominant negative, 293T cells were transfected with 0.25 μg of vector alone (pcDNA3) or CD4/TLR4 (a vector expressing a constitutively active form of TLR4) with or without increasing concentrations (50 ng, 250 ng, 1.0 μg) of either TIRAP P125H or MyD88 DN (a vector expressing MyD88 containing a proline to histidine mutation at the same position as TIRAP P125H) and the NF-κB-dependent luciferase reporter gene.
On the technique in general: In a reporter assay the amount or activity of a reporter protein is the signal.

For “TIRAP P125H: vector encoding a mutant form of TIRAP containing a proline to histidine mutation at amino acid position 125”, the “co-immunoprecipitation with TLR4” value with TLR4 is listed as “filed to co-immunoprecipitate”. Moreover, the “inhibition of NF-κB activation mediated by CD4/TLR4” value in test [1] is listed as “strongly inhibited”.
